In assay [1] the target is T1, mouse Mincle (Macrophage inducible C-type lectin) (mouse, UniProt Q9R0Q8 1-214).
T1 construct: whole, on cells; Expressed from cDNA in 293T, 2B4 and RBL-2H3 cells, or endogenous in mouse peritoneal macrophages; also called Clec4e; Clecsf9
T1 sequence (looked up): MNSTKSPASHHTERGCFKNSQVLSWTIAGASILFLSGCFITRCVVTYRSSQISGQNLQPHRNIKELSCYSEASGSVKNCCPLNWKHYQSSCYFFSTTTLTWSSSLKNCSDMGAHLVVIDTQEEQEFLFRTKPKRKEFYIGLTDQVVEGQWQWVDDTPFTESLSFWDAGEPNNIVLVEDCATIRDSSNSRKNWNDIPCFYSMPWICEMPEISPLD
Nature of the assay: immunoprecipitation with anti-Mincle polyclonal antibody from macrophage lysate, anti-FcRγ blot.

The target of the next assay is T2, hIgG1 Fc (Ig) (human, UniProt P01857-1 99-330 = IgG part, limits assumed).
T2 construct: domain: hIgG1 Fc; Control for Ig-Mincle; also called control Ig
Nature of the assay: pull-down from 2B4 dead cell lysate with Ig on Protein G Sepharose, silver staining, no Ca2+.

Assay [2] concerns the target T3, High mobility group box 1 (HMGB1) (UniProt P63158 1-215).
T3 sequence (looked up): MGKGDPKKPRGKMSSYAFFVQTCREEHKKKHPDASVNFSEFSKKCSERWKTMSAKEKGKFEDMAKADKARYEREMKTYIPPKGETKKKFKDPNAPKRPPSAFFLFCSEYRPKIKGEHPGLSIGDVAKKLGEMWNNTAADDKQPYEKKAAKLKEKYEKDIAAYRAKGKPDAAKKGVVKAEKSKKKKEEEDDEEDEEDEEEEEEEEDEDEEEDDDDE
Nature of the assay: pull-down from 2B4 cell lysate, immunoblot with anti-HMGB1. (In general: Immunoblotting shows a protein as a band on a membrane.)

For assay [3], the target named is damaged-DNA binding protein 1 (DDB1) (UniProt Q3U1J4 2-1140). Nature of the assay: pull-down from 2B4 dead cell lysate, immunoblot with anti-DDB1.
damaged-DNA binding protein 1 (DDB1), sequence (Q3U1J4 2-1140 limits assumed): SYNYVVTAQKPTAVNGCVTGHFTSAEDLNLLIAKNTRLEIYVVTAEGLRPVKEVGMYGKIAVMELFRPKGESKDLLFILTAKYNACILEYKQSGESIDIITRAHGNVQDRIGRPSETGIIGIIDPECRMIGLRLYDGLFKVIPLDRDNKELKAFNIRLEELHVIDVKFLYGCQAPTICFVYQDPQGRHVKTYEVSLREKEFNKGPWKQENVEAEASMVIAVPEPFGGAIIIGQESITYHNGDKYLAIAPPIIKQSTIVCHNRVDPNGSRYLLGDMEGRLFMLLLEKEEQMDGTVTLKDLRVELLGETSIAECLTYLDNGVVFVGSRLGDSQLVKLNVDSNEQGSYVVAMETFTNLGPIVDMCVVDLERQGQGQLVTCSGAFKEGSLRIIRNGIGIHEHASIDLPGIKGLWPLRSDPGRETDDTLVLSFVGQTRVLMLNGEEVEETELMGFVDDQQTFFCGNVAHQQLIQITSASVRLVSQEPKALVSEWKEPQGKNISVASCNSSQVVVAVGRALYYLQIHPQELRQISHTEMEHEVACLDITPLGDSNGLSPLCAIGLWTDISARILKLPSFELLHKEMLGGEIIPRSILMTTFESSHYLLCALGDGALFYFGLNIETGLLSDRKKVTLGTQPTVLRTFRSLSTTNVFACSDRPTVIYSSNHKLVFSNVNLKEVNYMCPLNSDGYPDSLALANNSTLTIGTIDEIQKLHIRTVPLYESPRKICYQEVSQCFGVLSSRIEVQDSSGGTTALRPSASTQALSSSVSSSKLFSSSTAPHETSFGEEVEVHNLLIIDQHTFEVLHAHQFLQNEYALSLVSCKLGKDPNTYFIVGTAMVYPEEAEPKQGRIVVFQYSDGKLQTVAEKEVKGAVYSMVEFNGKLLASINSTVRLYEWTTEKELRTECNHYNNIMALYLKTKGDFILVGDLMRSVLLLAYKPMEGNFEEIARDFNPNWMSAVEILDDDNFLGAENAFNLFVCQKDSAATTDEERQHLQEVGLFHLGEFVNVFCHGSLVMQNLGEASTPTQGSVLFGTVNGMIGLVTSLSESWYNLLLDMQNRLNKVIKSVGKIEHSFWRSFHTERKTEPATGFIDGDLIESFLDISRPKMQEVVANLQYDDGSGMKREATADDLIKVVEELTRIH

B1: endogenous FcRγ of mouse peritoneal macrophages (receptor, UniProt P20491 19-86, looked up)
chain: LGEPQLCYILDAVLFLYGIVLTLLYCRLKIQVRKAAIASREKADAVYTGLNTRSQETYETLKHEKPPQ
notes: whole, on cells; Co-immunoprecipitated from the lysate of thioglycolate-induced, LPS-stimulated peritoneal macrophages
B1: the binding result in assay [1] was “binds”.

B2: spliceosome-binding protein 130 (SAP130) from 2B4 cell lysate (ligand, UniProt Q921M3 1-1217, looked up)
chain: MFLYNLTLQRATGISFAIHGNFSGTKQQEIVVSRGKILELLRPDPNTGKVHTLLTVEVFGVIRSLMAFRLTGGTKDYIVVGSDSGRIVILEYQPSKNMFEKIHQETFGKSGCRRIVPGQFLAVDPKGRAVMISAIEKQKLVYILNRDAAARLTISSPLEAHKANTLVYHVVGVDVGFENPMFACLEMDYEEADNDPTGEAAANTQQTLTFYELDLGLNHVVRKYSEPLEEHGNFLITVPGGSDGPSGVLICSENYITYKNFGDQPDIRCPIPRRRNDLDDPERGMIFVCSATHKTKSMFFFLAQTEQGDIFKITLETDEDMVTEIRLKYFDTVPVAAAMCVLKTGFLFVASEFGNHYLYQIAHLGDDDEEPEFSSAMPLEEGDTFFFQPRPLKNLVLVDELDSLSPILFCQIADLANEDTPQLYVACGRGPRSSLRVLRHGLEVSEMAVSELPGNPNAVWTVRRHIEDEFDAYIIVSFVNATLVLSIGETVEEVTDSGFLGTTPTLSCSLLGDDALVQVYPDGIRHIRADKRVNEWKTPGKKTIVKCAVNQRQVVIALTGGELVYFEMDPSGQLNEYTERKEMSADVVCMSLANVPPGEQRSRFLAVGLVDNTVRIISLDPSDCLQPLSMQALPAQPESLCIVEMGGTEKQDELGERGSIGFLYLNIGLQNGVLLRTVLDPVTGDLSDTRTRYLGSRPVKLFRVRMQGQEAVLAMSSRSWLSYSYQSRFHLTPLSYETLEFASGFASEQCPEGIVAISTNTLRILALEKLGAVFNQVAFPLQYTPRKFVIHPESNNLIIIETDHNAYTEATKAQRKQQMAEEMVEAAGEDERELAAEMAAAFLNENLPESIFGAPKAGNGQWASVIRVMNPIQGNTLDLVQLEQNEAAFSVAVCRFSNTGEDWYVLVGVAKDLILSPRSVAGGFVYTYKLVNNGEKLEFLHKTPVEEVPAAIAPFQGRVLIGVGKLLRVYDLGKKKLLRKCENKHIANYISGIQTIGHRVIVSDVQESFIWVRYKRNENQLIIFADDTYPRWVTTASLLDYDTVAGADKFGNICVVRLPPNTNDEVDEDPTGNKALWDRGLLNGASQKAEVIMNYHVGETVLSLQKTTLIPGGSESLVYTTLSGGIGILVPFTSHEDHDFFQHVEMHLRSEHPPLCGRDHLSFRSYYFPVKNVIDGDLCEQFNSMEPNKQKNVSEELDRTPPEVSKKLEDIRTRYAF
notes: also called Sf3b3; 130-kD protein
Regarding B2, in the assay with hIgG1 Fc (Ig), the binding result is “no binding”.

B3: hIgG1 Fc-Mincle fusion protein (Ig-Mincle) (Fc fusion, mouse, UniProt Q9R0Q8 46-214, looked up)
chain: TYRSSQISGQNLQPHRNIKELSCYSEASGSVKNCCPLNWKHYQSSCYFFSTTTLTWSSSLKNCSDMGAHLVVIDTQEEQEFLFRTKPKRKEFYIGLTDQVVEGQWQWVDDTPFTESLSFWDAGEPNNIVLVEDCATIRDSSNSRKNWNDIPCFYSMPWICEMPEISPLD
notes: range 46-214; also called soluble Mincle protein; not shown: human IgG1 Fc region (hIgG Fc lacking a termination codon, from pME18S-SLAMsig-hIgG Fc)
As to B3, the binding result in assay [2] and in assay [3] was “no binding” each time.

The record behind these values is patent US20110177084A1 (RIKEN, published 2011).
